From patent publication US20020119165A1 (University of Pennsylvania, published 2002)
Ends that are not written are not given here.

Target: T1, HveA(200t) (UniProt Q92956 39-200, limits assumed)
T1 construct: Immobilized on microtiter wells in all ELISAs; also called soluble form of HveA; HVEM; not shown: C-terminal histidine tag
T1 sequence (looked up): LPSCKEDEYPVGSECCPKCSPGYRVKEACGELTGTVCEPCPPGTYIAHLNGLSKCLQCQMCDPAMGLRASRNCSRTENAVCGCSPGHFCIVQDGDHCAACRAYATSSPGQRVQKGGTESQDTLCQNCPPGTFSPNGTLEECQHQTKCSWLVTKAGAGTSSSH
Assay: inferred from competition ELISA on immobilized HveA

B1: BP-2 (3, 9 Ala) (peptide)
peptide: GSADGFRVAYMH
modifications: not fully specified (C-terminus)
notes: Linear analog of BP-2 in which the two cysteine residues are replaced by alanine; also called linear form of BP-2
  binding result: no binding
